Target: endogenous PKM2 of murine PDA^T and PDA^M cells (mouse (endogenous in PDA^T and PDA^M cells)) (UniProt P52480)
Experiment: cross-linking

Chain of endogenous PKM2 of murine PDA^T and PDA^M cells, P52480 1-531 (enzyme; other documents disagree on this pair) (P52480 whole entry): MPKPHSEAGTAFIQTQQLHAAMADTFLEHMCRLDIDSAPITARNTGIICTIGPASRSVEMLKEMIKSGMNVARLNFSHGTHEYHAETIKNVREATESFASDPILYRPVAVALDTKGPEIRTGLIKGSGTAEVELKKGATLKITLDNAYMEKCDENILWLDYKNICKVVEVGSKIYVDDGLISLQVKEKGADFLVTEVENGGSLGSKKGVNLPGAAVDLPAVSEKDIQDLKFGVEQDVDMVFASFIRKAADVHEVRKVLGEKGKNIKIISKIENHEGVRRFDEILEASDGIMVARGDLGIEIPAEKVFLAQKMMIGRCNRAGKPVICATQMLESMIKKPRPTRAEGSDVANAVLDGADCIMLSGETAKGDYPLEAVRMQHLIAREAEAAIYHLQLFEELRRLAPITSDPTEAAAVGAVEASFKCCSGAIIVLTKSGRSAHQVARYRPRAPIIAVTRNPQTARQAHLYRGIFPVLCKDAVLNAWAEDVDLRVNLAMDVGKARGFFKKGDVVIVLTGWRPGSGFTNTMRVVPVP

endogenous PKM2 of murine PDA^T and PDA^M cells, P52480 1-531 (enzyme; other documents disagree on this pair)
stoichiometry N: 4

Source: publication PMC9391305
